In the supplement of paper PMC11908140:

B1: library; numbered along this chain (parent)
chain: MRKPRAAVGSGHRKQAASQEGRQKHAKNNSQAKPSACDGLARQPEEVVLQASVSSYHLFRDVAEVTAFRGSLLSWYDQEKRDLPWRRRAEDEMDLDRRAYAVWVSEVMLQQTQVATVINYYTGWMQKWPTLQDLASASLEEVNQLWAGLGYYSRGRRLQEGARKVVEELGGHMPRTAETLQQLLPGVGRYTAGAIASIAFGQATGVVDGNVARVLCRVRAIGADPSSTLVSQQLWGLAQQLVDPARPGDFNQAAMELGATVCTPQRPLCSQCPVESLCRARQRVEQEQLLASGSLSGSPDVEECAPNTGQCHLCLPPSEPWDQTLGVVNFPRKASRKPPREESSATCVLEQPGALGAQILLVQRPNSGLLAGLWEFPSVTWEPSEQLQRKALLQELQRWAGPLPATHLRHLGEVVHTFSHIKLTYQVYGLALEGQTPVTTVPPGARWLTQEEFHTAAVSTAMKKVFRVYQGQQPGTCMGSKRSQVSSPCSRKKPRMGQQVLDNFFRSHISTDAHSLNSAAQ

Variants of: B1
Test: 8OG:A repair function score (normalized; synonymous = 0, nonsense = -1) (normalized log-likelihood score); higher = more repair activity (WT-like)
Details: with 8OG:A DNA repair reporter (GFP) in HEK-293 MUTYH KO cells
Summary of the method: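 GFP+ (repair) and GFP− bins of viable mCherry+ cells were collected at 72 h from MUTYH knockout HEK-293 cells bearing lentiviral MUTYH cDNA NNN codon-scan libraries in 10 pg/ml doxycycline, co-transfected with an 8OG:A GFP repair reporter and mCherry. Tile amplicons were sequenced, and per-tile Rosace fitness scores were normalized to a repair function score anchored on synonymous and nonsense distributions. Synonymous medians were set to 0 and nonsense to -1, with variants under 300 counts per million at the start removed.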
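Note: cells sorted at 72 h after reporter transfection.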

8OG:A repair function score: each site, then its substitutions
V230: F -0.517 | C -0.229 | K -0.826 | W -0.571 | I -0.264 | A -0.0122 | P -0.409 | G -0.152 | Y -0.311 | H -0.63 | E -0.881 | D -0.915 | Q -0.787 | R -0.524 | S -0.422 | L -0.499 | N -0.687 | M -0.387 | T -0.281
D243: P -0.554 | I -0.858 | V -0.767 | S -0.358 | N -0.739 | F -0.786 | H -0.31 | A -0.387 | C -0.276 | G -0.755 | M -0.753 | R -0.99 | K -0.914 | W -0.67 | Q -0.829 | L -0.818 | E -0.293 | Y -0.667 | T -0.727
W235: L -0.406 | P -1 | Q -0.314 | S -0.516 | E -0.204 | M -0.389 | R -0.496 | F -0.292 | Y -0.177 | K -0.51 | I -0.342 | D -0.452 | N -0.368 | V -0.467 | C -0.509 | H -0.343 | G -0.61 | A -0.284 | T -0.416
Q239: I -0.589 | A -0.104 | V -0.529 | G -0.228 | K -0.0216 | P -0.953 | S -0.175 | M -0.146 | D 0.103 | F -0.526 | T -0.143 | L -0.403 | H 0.289 | R -0.232 | W -0.74 | N 0.162 | Y -0.309 | E -0.065 | C -0.184
Q233: I 0.198 | M 0.177 | V 0.335 | Y 0.0243 | D -0.318 | L 0.227 | S 0.0726 | H 0.461 | A -0.259 | C -0.188 | F 0.305 | G -0.0523 | N -0.032 | E -0.306 | W -0.0138 | T 0.244 | P -0.428 | R -0.19 | K -0.089
L237: Y -0.0407 | V -0.463 | A -0.321 | I 0.105 | F -0.257 | Q -0.281 | E -0.684 | N -0.583 | C -0.474 | D -0.692 | W -0.397 | T -0.184 | G -0.848 | S -0.551 | K -0.816 | M -0.32 | R -0.738 | H -0.433 | P -0.931
R246: W -0.645 | F -0.68 | N -0.471 | M -0.559 | L -0.719 | I -0.836 | P -0.964 | Q -0.476 | V -0.732 | C -0.646 | H -0.449 | E -0.696 | Y -0.517 | K -0.495 | S -0.535 | A -0.605 | G -0.845 | D -0.657 | T -0.728
P247: H -0.982 | D -1.03 | C -0.799 | E -0.987 | A -0.379 | F -1.01 | G -0.799
S231: C -0.12 | Y -0.226 | D -0.132 | V -0.0155 | R 0.201 | W 0.173 | G -0.125 | N 0.155 | Q -0.132 | H -0.0123 | P -0.683 | I -0.0202 | M 0.155 | L -0.0707 | K 0.154 | F -0.24 | E 0.0501 | A -0.0555 | T 0.0918
L241: S -0.626 | V -0.358 | Y -0.893 | Q -0.948 | M -0.522 | I -0.264 | D -0.924 | F -0.872 | R -1.03 | A -0.581 | E -0.98 | G -0.827 | N -0.946 | P -0.994 | H -1.01 | K -1.01 | C -0.37 | T -0.51 | W -0.384
P244: F -0.422 | K 0.065 | C -0.39 | R -0.145 | V -0.427 | Q -0.604 | A -0.238 | N -0.467 | T -0.234 | W -0.457 | Y -0.542 | H -0.418 | E -0.105 | G -0.385 | I -0.574 | S -0.232 | D -0.291 | L -0.398
L229: N -0.25 | P -0.112 | S 0.0557 | V 0.0526 | Y 0.0445 | W -0.0377 | R 0.134 | Q -0.161 | T -0.124
G236: C 0.116 | P -0.455 | R 0.107 | T -0.0456 | N 0.18 | K 0.114 | I 0.00703 | A 0.149 | S 0.254 | L -0.0738 | Y -0.152 | E 0.29 | F 0.0301 | H -0.00754 | Q 0.356 | V -0.0226 | D 0.156
A238: N -0.887 | R -1.01 | P -1.01 | Q -0.254 | D -0.714 | I -0.365 | Y -0.881 | T -0.413 | L -0.816 | E -0.688 | S -0.0308 | C -0.249 | W -0.956 | F -0.858 | K -0.887 | V 0.0238 | M 0.0352 | H -0.805 | G -0.603
V242: D -0.978 | E -0.964 | I 0.0144 | T -0.488 | P -0.961 | N -0.576 | G -0.916 | M -0.625 | L -0.288 | F -0.874 | Q -0.763 | K -0.949 | A -0.526 | W -1.01 | C -0.39 | H -0.806 | R -0.886 | Y -0.964 | S -0.772
A245: V 0.000414 | T -0.0132 | E 0.644 | G 0.0269 | D 0.223 | C -0.113 | Q 0.0913 | W -0.0373 | F 0.00779 | N -0.0246 | M -0.146 | R -0.124 | L 0.157 | H -0.134 | Y -0.107 | S 0.0557 | I -0.104 | K -0.0553 | P -0.612
Q232: V -0.243 | C -0.188 | Y -0.106 | F -0.308 | N -0.0697 | E 0.105 | H -0.21 | D -0.0919 | I -0.459 | G 0.139 | L -0.326 | T -0.105 | W -0.433 | A -0.179 | K -0.0471 | R 0.171 | S -0.0424 | P -0.285 | M -0.355
L234: K -0.869 | Y -0.976 | A -0.833 | N -0.855 | Q -0.724 | I -0.183 | W -0.79 | P -1.02 | H -0.751 | D -1.03 | C -0.521 | V -0.29 | R -1.01 | T -0.464 | G -0.994 | E -0.954 | S -0.827
Q240: S -0.945 | V -0.936 | A -0.971 | P -1 | T -0.972 | I -0.959 | E -0.919 | G -1 | C -1.01 | Y -0.969 | D -0.979 | L -0.948 | N -0.999 | W -1 | H -0.94 | R -0.97 | M -0.867 | F -0.939 | K -0.932
